Measurements reported in US20240034757A1 (OXFORD UNIVERSITY INNOVATION, published 2024).

Tests used:
Test in all cases: BLI [Cont.) C]
CXCL5_HUMAN = target: T1, CXCL5_HUMAN (human, UniProt P42830 41-114)
T1 sequence: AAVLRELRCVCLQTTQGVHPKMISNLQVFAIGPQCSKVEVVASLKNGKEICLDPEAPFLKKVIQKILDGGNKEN

CXCL1_HUMAN = target: T2, CXCL1_HUMAN (human, UniProt P09341 35-107)
T2 sequence: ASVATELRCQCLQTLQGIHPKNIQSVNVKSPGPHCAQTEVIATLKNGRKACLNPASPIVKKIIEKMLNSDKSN

CXCL14_HUMAN = target: T3, CXCL14_HUMAN (human, UniProt O95715 35-111)
T3 sequence: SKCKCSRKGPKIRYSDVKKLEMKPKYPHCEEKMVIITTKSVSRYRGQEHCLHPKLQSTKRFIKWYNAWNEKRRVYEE

CXCL3_HUMAN = target: T4, CXCL3_HUMAN (human, UniProt P19876 35-107)
T4 sequence: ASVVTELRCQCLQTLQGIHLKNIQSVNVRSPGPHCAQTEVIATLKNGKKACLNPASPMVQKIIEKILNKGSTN

CXCL13_HUMAN = target: T5, CXCL13_HUMAN (human, UniProt O43927 23-109)
T5 sequence: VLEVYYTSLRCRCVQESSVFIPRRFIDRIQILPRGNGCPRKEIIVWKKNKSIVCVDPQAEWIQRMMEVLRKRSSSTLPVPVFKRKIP

CXCL6_HUMAN = target: T6, CXCL6_HUMAN (human, UniProt P80162 38-114)
T6 sequence: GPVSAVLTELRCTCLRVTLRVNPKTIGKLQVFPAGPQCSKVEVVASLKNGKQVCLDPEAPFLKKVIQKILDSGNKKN

CXCL12_HUMAN = CXCL12_HUMAN (human, UniProt P48061 22-89)
Sequence of CXCL12_HUMAN (P48061 22-89 limits assumed): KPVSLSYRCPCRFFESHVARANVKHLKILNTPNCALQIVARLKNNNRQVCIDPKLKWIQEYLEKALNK

CXCL2_HUMAN = target: T7, CXCL2_HUMAN (human, UniProt P19875 35-107)
T7 sequence: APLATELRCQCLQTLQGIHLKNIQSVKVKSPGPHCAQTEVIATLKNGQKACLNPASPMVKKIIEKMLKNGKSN

CXCL9_HUMAN = target: T8, CXCL9_HUMAN (human, UniProt Q07325 23-125)
T8 sequence: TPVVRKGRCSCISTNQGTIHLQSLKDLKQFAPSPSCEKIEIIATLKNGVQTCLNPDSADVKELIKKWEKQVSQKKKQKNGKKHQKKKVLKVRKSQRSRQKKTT

CXCL8_HUMAN = target: T9, CXCL8_HUMAN (human, UniProt P10145 28-99)
T9 sequence: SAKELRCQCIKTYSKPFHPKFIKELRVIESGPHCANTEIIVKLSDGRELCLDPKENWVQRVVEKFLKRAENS

B1: P1243:G4S:P1156 (designed binder)
chain: RNHTEDNSTEYYDYEEARCACPARHLNNTNGTVLKLLGCHYFCNGTLCTAPDGYPCYNLTAQQVRTLTTYPNTSCAVGVCMKGTCVKNGTMEQCFKTPGGGGSADDDNELFTVQYCGMNCTKDEGGTWTGCTGKKEGCKCYHESGKNYGLCLSTEYTDFSQYGNPSDSEIEAAKPKRSDTLSH
binding result (CXCL5_HUMAN): no binding (tested: 300 nM)
Kd (CXCL1_HUMAN): 0.0174 µM
binding result (CXCL14_HUMAN): no binding (tested: 300 nM)
binding result (CXCL3_HUMAN): no binding (tested: 300 nM)
binding result (CXCL13_HUMAN): no binding (tested: 300 nM)
binding result (CXCL6_HUMAN): no binding (tested: 300 nM)
binding result (CXCL12_HUMAN): no binding (tested: 300 nM)
binding result (CXCL2_HUMAN): no binding (tested: 300 nM)
binding result (CXCL9_HUMAN): no binding (tested: 300 nM)
Kd (CXCL8_HUMAN): 0.00763 µM
